# Test: soluble on expression in E. coli; label from the status in PepcDB or PDB records
row,Sequence,soluble on expression in E. coli
1,MSLAQIVNTERHSRLLPAPSSFEEGVVKFGDKEINIGGPLPTLAKDEKLVRVTHSLCPACYRLLPATIFEKEGKLFIRKICPEHGEFEDLYYADSSLYYKFDYWEYEGKGPKVPYVDLKSPCPYNCGLCPMHHQHSALVNLVITNRCDLSCWYCFFYAEKAGYVYEPTLEQIKFMVDQLKKQDITLVIQVTGGEPTLREDIIEIIKMLRENGVKHIQLNSWGGTFAKLYLEDPDKAIKYARALREAGVNTVYMSFDGTTRKTNPKNHWEIPYTLEVFRRAGMTSVVLVPTVIKTVNDNDLGNIVKFAAYNMDVVRSVNFQPVSLTGMMKRNMRAKFRITIPEVIKNIEEQTDGEITKDSWYPIGTSVVFSRLVEALTGKEQFEMANHPSCGAGTYVYVEWRNHEPHFIPISKFIDLEGLLEYLKEKEEELREGANKVWVASKVLYSIRKFIDKEQGPKDFDVYKMLYNIIIHHNYEALGEWHYRTLFLGSMHFMDLYNYDVQRVMRCDIHYVVPDGRVIPFCTYNVLNDLYRDKVLREYQIPLDKWTKEHGENSLGDAIKYKRIASTLENSEIYKNTYKSFQQMEGHHHHHH,not soluble
2,HLKFQSVFDIIGPVMIGPSSSHTAGAVRIGKVVHSIFGEPSEVTFHLYNSFAKTYQGHGTDKALVAGILGMDTDNPDIKNSLEIAHQKGIKIYWDILKDSNSPHPNTAKITVKNGDRSMSITGVSIGGGNIQVTELNG,not soluble
3,MIPITPTIALDDAEIEERFIRSSGPGGQNVNKVSTAVQLRFDVAGSPNLPGWVKHRLSVLAGSRLTGEGVLVLTAQSQRTQEANRREAVERLVALIQAACHRDKPRRPTRPTKGSQTRRMDGKTLRGAIKKGRQSKPSLDLEHHHHHH,soluble
4,MALRNVPFRSEVLGWDPDSLADYFKKLNYKDCEKAVKKYHIDGARFLNLTENDIQKFPKLRVPILSKLSQEINKNEERRSIFTRKPQVPRFPEETESHEEDNGGWSSFEEDDYESPNDDQDGEDDGDYESPNEEEEAPVEDDADYEPPPSNDEEALQNSILPAKPFPNSNSMYIDRPPSGKTPQQPPVPPQRPMAALPPPPAGRNHSPLPPPQTNHEEPSRSRNHKTAKLPAPSIDRSTKPPLDRSLAPFDREPFTLGKKPPFSDKPSIPAGRSLGEHLPKIQKPPLPPTTERHERSSPLPGKKPPVPKHGWGPDRRENDEDDVHQRPLPQPALLPMSSNTFPSRSTKPSPMNPLPSSHMPGAFSESNSSFPQSASLPPYFSQGPSNRPPIRAEGRNFPLPLPNKPRPPSPAEEENSLNEEWYVSYITRPEAEAALRKINQDGTFLVRDSSKKTTTNPYVLMVLYKDKVYNIQIRYQKESQVYLLGTGLRGKEDFLSVSDIIDYFRKMPLLLIDGKNRGSRYQCTLTHAAGYP,soluble
5,MGSSHHHHHHGGTGENLYFQGGSGNRIDISNFDFLYVIGKGTYGIVYKALDKKENNFVAIKKIINLCDENYGISKCILRELTILQKIKHKNIINLKYVFYGKDIEDKLKGENLENSCLYLAFEYCDIDLFNLIKKHNLNIKEIKYIIFELLLALSYFHSNNYIHRDIKPENIFITSEGEIKLGDLGMSVEKSDHMTPTVVTLWYRAPEILLKSTNYDQKVDIWSLGCLFMELIQGRPLFPGKNDCTQLELIYLLLGDKDKLTTVDKERKDMFPYFEINMLKDAIDDEHTLDLISKMLIYDPNYRISSKEALKHPCFQDIEQVKFSYNF,not soluble
6,MCMDKNVMWLRERINKVIKALEENNMNGYLVNSKEELISKIEELTNSGDIVACGGSMSLFEAGVIDHLRSGRYEFLDRYKEGLKPEDIKKIYRDAFSSDVYFTSTNAITEEGEIYNVDGNGNRVAAMLYGPDKVIIVAGYNKIVENLSEAIQRNRRISAPANAKRLNKKTPCAKVGNCMDCKSPEKICREYTLIRSQSNSNRIHVIFLNEELGYLEHHHHHH,soluble
7,MGSDKIHHHHHHMSTAIRYLRLYLHRPAAQGGGRRGIGYLSQYGDILRVSFDEDYIADPQRPTLSLSYRGANEADTQRILRSARDARLVRTDGRWPAYFQNLLPEGHNRDRLARERGCAPDDEFELLAAAGHDLMGALEVEPVPAQEGVPDVVRYWHTTQGLDVLEPGFVEYPVEDAASLPGVVTKFSAVQDGRRYLVKRRGAAGSVILKLPTTAHPDLVANEFTCYQLAGSLGLHCAQARIITRAEAELPEAVPLDDILAVQRFDHLADGTRVHMEEFNQALGYAPRQKYGKGLLQDWATMLRVVDRLSDQPVQDTREFLARMVAFILMGNTDAHLKNWALVYPDGHTPRLAPLYDPVCVAAFFEGATEHQYAVNRAIDRSMRALDWDALQALIKTAGLLRIPRHLALLRDLVRRAQADWPALLADAPSTLQRTVQARLAGGVALTHP,not soluble
8,MGSDKIHHHHHHMRMAQVVLENVTKVYENKVVAVKNANLVVEDKEFVVLLGPSGCGKTTTLRMIAGLEEITDGKIYIDGKVVNDVEPKDRDIAMVFQNYALYPHMTVYENMAFGLKLRKYPKDEIDRRVREAAKILGIENLLDRKPRQLSGGQRQRVAVGRAIVRNPKVFLFDEPLSNLDAKLRVQMRSELKKLHHRLQATIIYVTHDQVEAMTMADKIVVMKDGEIQQIGTPHEIYNSPANVFVAGFIGSPPMNFVNARVVRGEGGLWIQASGFKVKVPKEFEDKLANYIDKEIIFGIRPEDIYDKLFALAPSPENTITGVVDVVEPLGSETILHVKVGDDLIVASVNPRTQAKEEQKIDLVLDMTRMHAFDKETEKAII,not soluble
9,HRPEGLEQLEAQTNFTKRELQVLYRGFKNECPSGVVNEETFKQIYAQFFPHGDASTYAHYLFNAFDTTQTGSVKFEDFVTALSILLRGTVHEKLRWTFNLYDINKDGYINKEEMMDIVKAIYDMMGKYTYPVLKEDTPRQHVDVFFQKMDKNKDGIVTLDEFLESCQEDDNIMRSLQLFQNVM,soluble
10,MSLCGIAGTLNSSCFSSKKLLAALAHRGPSGHGEFSHQGVNLFHARLSIQDLSPAGAQPMHRHHLSIVFNGEIYNHLELRAKVADYPFSTRSDTETILALFERFGERSLEWMDGMFALAILDQRTHKLFLARDRMGKKPLFYYQEGEEFLFASELNALLTLKPLQIDHAKLSAFLRCGFFPHDGAPYQGVQSLPQGSYAFIDLHHPRPLSPQRYFDLLSLYQAPKIEGFEASKEAVELALKESVKNRLESSDLEVGSFLSGGIDSSLITALASFFTPKLKTFTVAFEGAYDESSLAELVAKRYKTDHTTLHLNPSKLKEEVKGILACYGRPFMDSSAIPSYYVSQEAKKHLTVILNGDGADELFGGYRRYVPMSHGWLKLARPLSLLLPLLPLPKEKKSLYNYLHRLLAMSRKRGLDFYLSATIDSFEDAYAFSPNPHTQTLDQEITQILEDSSLSSLSKMLYLDSQNLLLSDLLPKMDIATMAHSLEGRSPFLGKSLLEVAPRIKDEYKIFGKSTKFILRELAKKYLPHALLEQPKRGFEVPLRAWVEGELKELIFDSLSKNCLSRELIESRFVDALLDKPQDFAPEKRAKMLWSLFSLEVWHEHYQKACEEGHHHHHH,soluble
11,MGSDKIHHHHHHMYMEKRQFIKDIAVNGDVNGLFLIASANQMQAKNGPFWRLEICDASGTLNAKIWSPLSASFETLTPGDVVHLEGRAGLFRDRIDISVDRMRVLAPYELEALDMGQFLVSSERDPAEMLTELLELCREVFTHRPWRKFVTGVLRNEELAEALKAAPAAKSVHHAYRGGLLEHILSVSGLCMRIADHYPEIDRQVLLAGAIFHDIGKAWELSGGLVNDYTDEGRLLGHIHIGLEQLEPFLRRSGLEHELAVHFKHLILSHHGEYEFGSPRRPKTREAMVLHYADNLDAKMAQLNSLFKGFEDGETGWTPFQPTLQRFLYNPVRTPETETVRRKRPETPREEQCSLLSKG,not soluble
12,MQAFEPYIALNSHVRKPVIHISLNPSPKDILSKEQMTVLAQEFMEKFGYGNQPYIVWLHEDIDRKHMHIISVRINEKGEKIDHNREAIRAQNICRDMEVKYGLHSTLGEHSERELLSLQKVDYPKGDVKAQVKHTARTLLECYNCHSLAEYNTLLNLYNVTVYEVRGSVDGKEYYGIMYGALDDDGQQAGTPFKSSKFGKVFGYEALQKKFAATAEKVKRNSLAERARQEIVKAMQDISTKEAFARRLKDADIEVVYRINPEGRLYGITFIDHTNRTVFNGSRLGKAFSANVFNELFNNPDADRTKLIPPPEQDTPRQARETDAEERQEREEYRQQENRGNYQSEPSGSLIDTSALGAIDIFSVLMEDDHTHEYIDPAFRFGHKKKKKRRRRLLEHHHHHH,soluble
13,MANWQCVKQCGACCNLDPAERPEIEDYLTPDELEIYFSMVGEGGWCVNFDHTTRECRIYSTRPRFCRVEPDIFQDMYGIESEELNDFAIECCRQQIEGVYGDRSLEMLRFDKAVGILEHHHHHH,soluble
14,MAELKLEHIKKTYDNNNTVVKDFNLHITDKEFIVFVGPSGCGKSTTLRMVAGLESITSGDFYIDGERMNDVEPKNRDIAMVFQNYALYPHMTVFENMAFGLKLRKVNKKEIEQKVNEAAEILGLTEYLGRKPKALSGGQRQRVALGRAIVRDAKVFLMDEPLSNLDAKLRVQMRTEILKLHKRLNTTTIYVTHDQTEALTMASRIVVLKDGDIMQVGTPREIYDAPNCIFVAQFIGSPAMNMLNATVEMDGLKVGTHHFKLHNKKFEKLKAAGYLDKEIILGIRAEDIHEEPIFIQTSPETQFESEVVVSELLGSEIMVHSTFQGMELISKLDSRTQVMANDKITLAFDMNKCHFFDEKTGNRIV,not soluble
15,MSLIRWCFTMKLAVIGGGDLQDSNHSPINERLIELTNKQYPKVLFIPTASHDDESYIKLFLDTFEKQLHCDVQILGIIADTPSKYEIDEMIQSADLIYLGGGNYIQMVTEWKEHKLDEKLLLALEQGTLIAGYSAGAMCWFTSSIRSDYEGSGYIESNGWGIVNKRFCPHYNQLNRMNAFHSFLQNHQGNIEGIALEDNCALYITEESFEIIGEPEKAWEFYMSDNKLIRQHFDITLKSYLEGHHHHHH,not soluble
16,MGHHHHHHSHMDVVKEIMAAIKQYETIIIHRHQRPDPDAIGSQVGLAELLRASFPEKNIYQVGGPVEGLEFLAEMDVITDDVYRGALVIVTDTANAPRISDARFSLGDQLIKIDHHPNDEPYGDLVWVNTNASSCSEIIVDFWQQHLAELTMTDNAARLLYAGIVGDTGRFLYPSTSAHTLAVAAQLRTFNFNAADLNRELDQMPLKVAKLAGYIYQNLEIDANGAARVVLPQSILNSYDIVDSETAAIVSMPGKIEDVLSWAIFVEQPEGYYRVRLRSKGPIINTIAKKHHGGGHPLASGANARDAAEIEVIYQEIQAACQEWAQK,soluble
17,MSLKAVIFDMDGVLIDSEPLHLDYAFKLFKELNITMTPNEYSKFIGTTSLYMWSNIKDTYNLENTVESLINKERNGFFEFLSSPNTNIKPIDHIPELLGALKENNFKTAVASSSPMRVIKYIINNFELAKQFNELVTGDYVERSKPNPDIFLYAAKKLDVSPEQCVVIEDSHNGVLAAKNAGMKCIGFKNPNSGNQDLSKADTIIHSFNEIDILNEGHHHHHH,soluble
18,MGSDKIHHHHHHMKLHQGERVSFVKTIPSLQETEFSRLEERLCFAKHAHPTYSIGIMPLGLSLCQGEGETYFMGRHKVCVYHPGEEHTCVFEHTGGSWAYWNCYPKEEMLREYASEILGERGEPHFAKTVVEDPYAYRLFWELFDLVGKERELLALQEASLKAFSYLIAHHASPWHPSSRFLLMERAKITQAKERILEGDEVEKITLEELASLCGMSRFRFLRLFAKLEGMTPHRFLLMHKTQKAKRYLQEGCDISEAALLSGFCDQAHLSRTLRRFYGYTPRSLRS,not soluble

# From the DeepSol protein solubility set
